Results taken from PMC7519303.

Molecular target: SgmX-Strep (C-terminal Strep-tagged SgmX variant) (M. xanthus)
Assay: SDS/PAGE of the purified protein; purified SgmX-Strep; band of ~233 kDa, heat- and detergent-resistant dimer

stoichiometry N: 2
Substance: SgmX-Strep (C-terminal Strep-tagged SgmX variant) (natural protein)
